Target: T1, Full-length H-Ras (SNAPtag-(GAGS)2x-MBP-H-Ras-DoubleHisTag) (human, UniProt P01112 1-189, SNAP-Cell 430 dye on the SNAP-tag)
T1 construct: H-Ras GTPase, human, full length; loaded with GDP or GTP as the experiment says; Held on Ni beads by the C-terminal double His tag; The nucleotide state (GDP or GTP) is a condition of the assay; also called wild-type Ras; WT Ras; source: E. coli BL21(T1R), purified (Ni-NTA, amylose, gel filtration Superdex S200); not shown: SNAP-tag, N-terminal, kept; DoubleHisTag (10xHis-(GAGS)3x-6xHis), …
Experiment: recruitment of fluorescent effector to Ras-loaded beads, spinning disk confocal microscopy; two competing effectors, each with its own fluorophore, in equivalent amounts on the same Ras-loaded beads; 2 uM RasGRF GEF step input, 5 mM GTP; GAP-free or with NF1-GAP
Details: both partners purified

output amplitude, fold lower than C-Raf RBD (GAP-free two-effector network): 20 times lower
B1: RBD from the A-Raf kinase (SNAPtag-(GAGS)2x-MBP-ARafRBD-StrepII) (domain or fragment, UniProt P10398 19-91, looked up)
chain: GTVKVYLPNKQRTVVTVRDGMSVYDSLDKALKVRGLNQDCCVVYRLIKGRKTVTAWDTAIAPLDGEELIVEVL
modifications: SNAP-Surface 488 or SNAP-Surface 549 dye on the SNAP-tag
notes: source: E. coli BL21(T1R), purified (Streptactin, amylose, gel filtration Superdex S75); not shown: SNAP-tag, N-terminal, kept
